Laboratory results taken from the Human Domainome abundance scans (Beltran et al. 2025).
± gives the uncertainty stated by the source.

B1: Integrator complex subunit 12, residues 155 to 213; numbered along this chain, Q96CB8 (parent)
chain: AMEMGLACVVCRQMMVASGNQLVECQECHNLYHRDCHKPQVTDKEANDPRLVWYCARCT
B2: RUN and FYVE domain-containing protein 1, residues 639 to 698; numbered along this chain, Q96T51 (parent)
chain: WLKDDEATHCRQCEKEFSISRRKHHCRNCGHIFCNTCSSNELALPSYPKPVRVCDSCHTL

Variants of: B1
Assay: abundance fitness (aPCA) (normalised: wild type 0, dead -1); higher = more abundant; growth selection in yeast, the domain comes from the species named
Conditions: Homo sapiens

Row | Variant | abundance fitness
1 | AMEMGLACVVCRQMMVASGNQLVECQECHNLYHRDCHKPQVTDKEANDPRLVWYCARCE | 0.098 ± 0.14
2 | AMEMGLACVVCRQMMVASGNQLVECQECHNLYHRDCHKPQVTDKEANDPRLVWYCARCF | -0.254 ± 0.14
3 | AMEMGLACVVCRQMMVASGNQLVECQECHNLYHRDCHKPQVTDKEANDPRLVWYCARCD | -0.072 ± 0.17
4 | AMEMGLACVVCRQMMVASGNQLVECQECHNLYHRDCHKPQVTDKEANDPRLVWYCARCM | -0.237 ± 0.13
5 | AMEMGLACVVCRQMMVASGNQLVECQECHNLYHRDCHKPQVTDKEANDPRLVWYLARCT | -1.09 ± 0.089
6 | AMEMGLACVVCRQMMVASGNQLVECQECHNLYHRDCHKPQVTDKEANDPRLVWYDARCT | -0.507 ± 0.14
7 | AMEMGLACVVCRQMMVASGNQLVECQECHNLYHRDCHKPQVTDKEANDPRLVWYTARCT | -1.16 ± 0.11
8 | AMEMGLACVVCRQMMVASGNQLVECQECHNLYHRDCHKPQVTDKEANDPRLVWYIARCT | -1.09 ± 0.28
9 | AMEMGLACVVCRQMMVASGNQLVECQECHNLYHRDCHKPQVTDKEANDPRLVWYPARCT | -0.891 ± 0.11
10 | AMEMGLACVVCRQMMVASGNQLVECQECHNLYHRDCHKPQVTDKEANDPRLVWYEARCT | -0.765 ± 0.067
11 | AMEMGLACVVCRQMMVASGNQLVECQECHNLYHRDCHKPQVTDKEANDPRLVWYAARCT | -0.809 ± 0.066
12 | AMEMGLACVVCRQMMVASGNQLVECQECHNLYHRDCHKPQVTDKEANDPRLVWYVARCT | -1.08 ± 0.095
13 | AMEMGLACVVCRQMMVASGNQLVECQECHNLYHRDCHKPQVTDKEANDPRLVWYHARCT | -0.938 ± 0.18
14 | AMEMGLACVVCRQMMVASGNQLVECQECHNLYHRDCHKPQVTDKEANDPRLVWYWARCT | -1.11 ± 0.1
15 | AMEMGLACVVCRQMMVASGNQLVECQECHNLYHRDCHKPQVTDKEANDPRLVWYNARCT | -0.615 ± 0.21
16 | AMEMGLACVVCRQMMVASGNQLVECQECHNLYHRDCHKPQVTDKEANDPRLVWYYARCT | -0.913 ± 0.13
17 | AMEMGLACVVCRQMMVASGNQLVECQECHNLYHRDCHKPQVTDKEANDPRLVWYRARCT | -0.774 ± 0.05
18 | AMEMGLACVVCRQMMVASGNQLVECQECHNLYHRDCHKPQVTDKEANDPRLVWYFARCT | -1.05 ± 0.21
19 | AMEMGLACVVCRQMMVASGNQLVECQECHNLYHRDCHKPQVTDKEANDPRLVWYMARCT | -1.11 ± 0.11

Row | Variant | abundance fitness
20 | AMEMGLACVVCRQMMVASGNQLVECQECHNLYHRDCHKPQVTDKEANDPRLVWYGARCT | -0.913 ± 0.06
21 | AMEMGLACVVCRQMMVASGNQLVECQECHNLYHRDCHKPQVTDKEANDPRLVWYQARCT | -1.01 ± 0.13
22 | AMEMGLACVVCRQMMVASGNQLVECQECHNLYHRDCHKPQVTDKEANDPRLVWYSARCT | -0.897 ± 0.075
23 | AMEMGLACVVCRQMMVASGNQLVECQECHNLYHRDCHKPQVTDKEANDPRLVWYCAQCT | -0.034 ± 0.051
24 | AMEMGLACVVCRQMMVASGNQLVECQECHNLYHRDCHKPQVTDKEANDPRLVWYCAKCT | -0.029 ± 0.047
25 | AMEMGLACVVCRQMMVASGNQLVECQECHNLYHRDCHKPQVTDKEANDPRLVWYCATCT | 0.057 ± 0.056
26 | AMEMGLACVVCRQMMVASGNQLVECQECHNLYHRDCHKPQVTDKEANDPRLVWYCAHCT | -0.046 ± 0.081
27 | AMEMGLACVVCRQMMVASGNQLVECQECHNLYHRDCHKPQVTDKEANDPRLVWYCAECT | -0.013 ± 0.043
28 | AMEMGLACVVCRQMMVASGNQLVECQECHNLYHRDCHKPQVTDKEANDPRLVWYCASCT | -0.026 ± 0.043
29 | AMEMGLACVVCRQMMVASGNQLVECQECHNLYHRDCHKPQVTDKEANDPRLVWYCAPCT | -0.013 ± 0.048
30 | AMEMGLACVVCRQMMVASGNQLVECQECHNLYHRDCHKPQVTDKEANDPRLVWYCACCT | -0.075 ± 0.068
31 | AMEMGLACVVCRQMMVASGNQLVECQECHNLYHRDCHKPQVTDKEANDPRLVWYCAICT | -0.103 ± 0.086
32 | AMEMGLACVVCRQMMVASGNQLVECQECHNLYHRDCHKPQVTDKEANDPRLVWYCAGCT | 0.051 ± 0.035
33 | AMEMGLACVVCRQMMVASGNQLVECQECHNLYHRDCHKPQVTDKEANDPRLVWYCAMCT | -0.134 ± 0.046
34 | AMEMGLACVVCRQMMVASGNQLVECQECHNLYHRDCHKPQVTDKEANDPRLVWYCAFCT | -0.234 ± 0.095
35 | AMEMGLACVVCRQMMVASGNQLVECQECHNLYHRDCHKPQVTDKEANDPRLVWYCAVCT | -0.074 ± 0.038
36 | AMEMGLACVVCRQMMVASGNQLVECQECHNLYHRDCHKPQVTDKEANDPRLVWYCAACT | -0.018 ± 0.039
37 | AMEMGLACVVCRQMMVASGNQLVECQECHNLYHRDCHKPQVTDKEANDPRLVWYCALCT | -0.122 ± 0.042
38 | AMEMGLACVVCRQMMVASGNQLVECQECHNLYHRDCHKPQVTDKEANDPRLVWWCARCT | -0.222 ± 0.063

Variants of: B2
Assay: as above
Conditions: Homo sapiens

Row | Variant | abundance fitness
39 | WLKDDEATHCRQCEKEFSISRRKHHCRNCGHIFCNTCSSIELALPSYPKPVRVCDSCHTL | -0.223 ± 0.2
40 | WLKDDEATHCRQCEKEFSISRRKHHCRNCGSIFCNTCSSNELALPSYPKPVRVCDSCHTL | -0.225 ± 0.039
41 | WLKDDEATHCRQCEKEFSISRRCHHCRNCGHIFCNTCSSNELALPSYPKPVRVCDSCHTL | -0.176 ± 0.057
42 | WLKDDEATHCRQCEKEFSISRRKHHCRNCGHIFCFTCSSNELALPSYPKPVRVCDSCHTL | -0.064 ± 0.059
43 | WLKDDEATHCRQCEKEFSISRRKHHCRNCGHIFCNTCSSNELALPSYPKPVRVCDSSHTL | -0.716 ± 0.06
44 | WLKDDEATHCRQCEKEFSISRRKHHQRNCGHIFCNTCSSNELALPSYPKPVRVCDSCHTL | -0.855 ± 0.087
45 | WLKDDEATHCRQCCKEFSISRRKHHCRNCGHIFCNTCSSNELALPSYPKPVRVCDSCHTL | -0.243 ± 0.064
